Reference: patent US20020143164A1 (published 2002)

Target: Endogenous Ras of HEK-293T cells (human (endogenous in HEK-293T cells))
Assay: cell-based or functional assay

enhancement of Ras activation in cells after 8-Br-cAMP (GST-Raf1-RBD precipitation): 3.9 fold | enhancement of Ras activation in cells after 8-Br-cAMP plus H-89 (GST-Raf1-RBD precipitation): 3.5 fold
B1: Flag-tagged full-length GRF4 (enzyme, not shown: small tags and cut ends)
chain: MKPLAIPANHGVMGQQEKHSLPADFTKLHLTDSLHPQVTHVSSSHSGCSITSDSGSSSLSDIYQATESEAGDMDLSGLPETAVDSEDDDDEEDIERASDPLMSRDIVRDCLEKDPIDRTDDDIEQLLEFMHQLPAFANMTMSVRRELCAVMVFAVVERAGTIVLNDGEELDSWSVILNGSVEVTYPDGKAEILCMGNSFGVSPTMDKEYMKGVMRTKVDDCQFVCIAQQDYCRILNQVEKNMQKVEEEGEIVMVKEHRELDRTGTRKGHIVIKGTSERLTMHLVEEHSVVDPTFIEDFLLTYRTFLSSPMEVGKKLLEWFNDPSLRDKVTRVVLLWVNNHFNDFEGDPAMTRFLEEFENNLEREKMGGHLRLLNIACAAKAKRRLMTLTKPSREAPLPFILLGGSEKGFGIFVDSVDSGSKATEAGLKRGDQILEVNGQNFENIQLSKAMEILRNNTHLSITVKTNLFVFKELLTRLSEEKRNGAPHLPKIGDIKKASRYSIPDLAVDVEQVIGLEKVNKKSKANTVGGRNKLKKILDKTRISILPQKPYNDIGIGQSQDDSIVGLRQTKHIPTALPVSGTLSSSNPDLLQSHHRILDFSATPDLPDQVLRVFKADQQSRYIMISKDTTAKEVVIQAIREFAVTATPDQYSLCEVSVTPEGVIKQRRLPDQLSKLADRIQLSGRYYLKNNMETETLCSDEDAQELLRESQISLLQLSTVEVATQLSMRNFELFRNIEPTEYIDDLFKLRSKTSCANLKRFEEVINQETFWVASEILRETNQLKRMKIIKHFIKIALHCRECKNFNSMFAIISGLNLAPVARLRTTWEKLPNKYEKLFQDLQDLFDPSRNMAKYRNVLNSQNLQPPIIPLFPVIKKDLTFLHEGNDSKVDGLVNFEKLRMIAKEIRHVGRMASVNMDPALMFRTRKKKWRSLGSLSQGSTNATVLDVAQTGGHKKRVRRSSFLNAKKLYEDAQMARKVKQYLSNLELEMDEESLQTLSLQCEPATNTLPKNPGDKKPVKSETSPVAPRAGSQQKAQSLPQPQQQPPPAHKINQGLQVPAVSLYPSRKKVPVKDLPPFGINSPQALKKILSLSEEGSLERHKKQAEDTISNASSQLSSPPTSPQSSPRKGYTLAPSGTVDNFSDSGHSEISSRSSIVSNSSFDSVPVSLHDERRQRHSVSIVETNLGMGRMERRTMIEPDQYSLGSYAPMSEGRGLYATATVISSPSTEELSQDQGDRASLDAADSGRGSWTSCSSGSHDNIQTIQHQRSWETLPFGHTHFDYSGDPAGLWASSSHMDQIMFSDHSTKYNRQNQSRESLEQAQSRASWASSTGYWGEDSEGDTGTIKRRGGKDVSIEAESSSLTSVTTEETKPVPMPAHIAVASSTTKGLIARKEGRYREPPPTPPGYIGIPITDFPEGHSHPARKPPDYNVALQRSRMVARSSDTAGPSSVQQPHGHPTSSRPVNKPQWHKPNESDPRLAPYQSQGFSTEEDEDEQVSAV
